Here are results for 4 molecules from patent US20230220074A1 (Alector, published 2023).

Test [1] deals with T1, murine PILRA (mouse, UniProt Q2YFS3 32-302).
T1 construct: Ectopically expressed on 293 cells; also called mPILRA; mouse PILRA
Description: flow cytometry, conditioned medium on 293 cells expressing the target. On the procedure: (§1) Antibodies against human PILRA were generated as follows. […] PILRA^{-/-} PILRB1^{-/-} PILRB2^{-/-} mice were immunized with human PILRA protein, and hybridomas prepared using standard methods. 300 conditioned media samples containing antibodies were assessed for binding to parental 293 cells or 293 cells ectopically expressing hPILRA, hPILRB, cPILRA, mPILRA, or mPILRB by FACS. […] Six antibodies were identified as human PILRA binders using a cutoff of greater than 5-fold binding. […] No antibody was identified that bound mouse PILRA.
For orientation: In flow cytometry, cells or beads pass a laser one at a time.

Test [2] concerns the target T2, human PILRA (human, UniProt Q9UKJ1 20-303).
T2 construct: also called hPILRA
Description: flow cytometry, hybridoma conditioned medium on 293 cells expressing the target; MFI relative to 293 parental cells. On the procedure:
as §1

The target in test [3] is T3, human PILRB (human, UniProt Q9UKJ0 20-227).
T3 construct: Ectopically expressed on 293 cells; also called hPILRB
T3 sequence (Q9UKJ0 20-227): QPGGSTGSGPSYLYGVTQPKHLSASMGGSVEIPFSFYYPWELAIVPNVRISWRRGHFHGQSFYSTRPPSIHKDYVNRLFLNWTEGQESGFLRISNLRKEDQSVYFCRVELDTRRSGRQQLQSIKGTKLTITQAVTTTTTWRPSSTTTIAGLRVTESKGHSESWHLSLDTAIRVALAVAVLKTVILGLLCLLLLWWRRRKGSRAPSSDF
The description is as above. Here is the method:
as §1

Test [4] deals with T4, cynomolgus monkey PILRA (cynomolgus monkey).
T4 construct: Ectopically expressed on 293 cells; also called cPILRA
T4 sequence (chain, as listed by the source): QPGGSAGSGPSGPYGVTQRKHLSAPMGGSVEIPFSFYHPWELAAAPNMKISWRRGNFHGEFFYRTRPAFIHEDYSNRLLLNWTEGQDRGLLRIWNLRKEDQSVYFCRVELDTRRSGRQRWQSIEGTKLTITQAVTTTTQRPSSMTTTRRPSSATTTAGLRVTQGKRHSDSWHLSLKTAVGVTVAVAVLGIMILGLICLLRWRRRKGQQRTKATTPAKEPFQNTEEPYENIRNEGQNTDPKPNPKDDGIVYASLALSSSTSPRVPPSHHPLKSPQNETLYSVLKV
The test is described as above. On the procedure:
as §1

The target in test [5] is T1, murine PILRA. The description is as above. Here is the method:
as §1

Test [6] deals with T5, murine PILRB (mPILRB1) (mouse, UniProt Q2YFS2 29-224).
T5 construct: whole, on cells; Ectopically expressed on 293 cells; also called mouse PILRB
T5 sequence (Q2YFS2 29-224): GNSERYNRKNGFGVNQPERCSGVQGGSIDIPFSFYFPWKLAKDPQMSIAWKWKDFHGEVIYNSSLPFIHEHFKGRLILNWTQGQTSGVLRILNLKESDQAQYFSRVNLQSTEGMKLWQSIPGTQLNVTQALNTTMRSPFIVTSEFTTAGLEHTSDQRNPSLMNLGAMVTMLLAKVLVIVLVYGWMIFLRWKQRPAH
Described as above. On the procedure: as §1

For test [7], the target named is T6, soluble human PILRA hIgG1 Fc construct (human).
T6 construct: also called PILRA Fc; PILRA-Fc
T6 sequence (chain, as listed by the source limits assumed): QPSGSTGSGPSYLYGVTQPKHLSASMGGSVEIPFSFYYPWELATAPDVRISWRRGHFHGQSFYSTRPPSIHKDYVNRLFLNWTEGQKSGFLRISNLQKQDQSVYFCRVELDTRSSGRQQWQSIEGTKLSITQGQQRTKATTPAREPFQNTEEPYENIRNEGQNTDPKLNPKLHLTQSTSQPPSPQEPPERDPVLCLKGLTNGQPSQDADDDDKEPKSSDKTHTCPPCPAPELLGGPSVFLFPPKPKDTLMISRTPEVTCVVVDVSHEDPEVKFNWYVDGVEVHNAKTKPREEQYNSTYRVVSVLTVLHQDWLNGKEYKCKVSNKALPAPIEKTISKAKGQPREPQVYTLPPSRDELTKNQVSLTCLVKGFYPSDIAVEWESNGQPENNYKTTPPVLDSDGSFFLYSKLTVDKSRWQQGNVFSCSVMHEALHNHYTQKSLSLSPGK
Description: flow cytometry; blocking of PILRA Fc binding to human CD3+ T cells, 3 donors, average ± SEM. On the procedure: Purified anti-hPILRA antibodies were evaluated for their ability to block binding of PILRA Fc to human CD3+ T cells from 3 separate donors in order to calculate the ligand blocking potency of these antibodies.

T2 sequence (Q9UKJ1 20-303): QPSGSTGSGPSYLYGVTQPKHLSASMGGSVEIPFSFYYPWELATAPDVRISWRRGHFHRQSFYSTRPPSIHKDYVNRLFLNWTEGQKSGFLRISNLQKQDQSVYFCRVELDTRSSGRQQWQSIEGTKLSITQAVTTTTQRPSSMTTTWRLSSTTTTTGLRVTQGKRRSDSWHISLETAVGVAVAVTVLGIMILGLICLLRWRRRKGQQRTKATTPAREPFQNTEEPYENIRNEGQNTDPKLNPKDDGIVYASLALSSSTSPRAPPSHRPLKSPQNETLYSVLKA
T1 sequence (Q2YFS3 32-302): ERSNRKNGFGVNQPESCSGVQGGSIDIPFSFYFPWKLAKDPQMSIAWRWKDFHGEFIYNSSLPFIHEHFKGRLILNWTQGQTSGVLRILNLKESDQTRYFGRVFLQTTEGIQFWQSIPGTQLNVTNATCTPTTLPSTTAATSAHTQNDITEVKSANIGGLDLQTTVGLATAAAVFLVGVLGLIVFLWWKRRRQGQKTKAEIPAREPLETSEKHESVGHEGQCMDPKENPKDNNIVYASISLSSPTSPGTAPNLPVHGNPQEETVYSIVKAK

B1: hPA-001 (antibody, V domains shown)
VH: QVTLKESGPGILQPSQTLSLTCSFSGFSLTTFGMGVGWIRQPSGKGLEWLAHIWWDDDKYYNPALKSRLTISKDISKNQVFLKIANVDTADTATYYCARIEDYGNPFDYWGQGTTLTVSS
VL: DIQMNQSPSSLSASLGDTITITCHASQNIHVWLSWYQQKPGNIPKLLIYKASNLHTGVPSRFSGSGSGTGFTLTISSLQPEDIATYYCQQGQSYPLTFGAGTKLELK
notes: Mouse hybridoma antibody, tested as conditioned medium
Consider B1, for which the binding result in test [1] is on record as “no binding (tested: cutoff of greater than 5-fold binding)”. The “MFI relative to 293 parental cells” value is 131 fold over 293 parental cells in test [2]; 1.3 fold over 293 parental cells in test [3]; 0.5 fold over 293 parental cells in test [4]; 0.5 fold over 293 parental cells in test [5]; 0.5 fold over 293 parental cells in test [6].

B2: hPA-004 (antibody, V domains shown)
VH: QVTLKESGPGMLQPSQTLSLACSFSGFSLNSFGVAVGWIRQPSGKGLEWLAHIWWDDDKSYNPALKSRLTISKDTSKNQVFLKLANVDTADTATYYCTRIADYGNHFDYWGQGTALTVSS
VL: DIQMNQSPSSLSASLGDTITITCHASQNSHVWLSWYQQKPGNIPKLLIYKASNLHTGVPSRFSGSGSGTGFTLTISGLQPEDIATYYCQQGQTYPFTFGSGTKLEIK
notes: Mouse hybridoma antibody, tested as conditioned medium or purified
As a reminder, the IC50 is the concentration at which inhibition is half-maximal. In the case of B2, in test [1], the binding result is on record as “no binding (tested: cutoff of greater than 5-fold binding)”. For the same molecule, the IC50 in test [7] stood at 1.7 nM. Further, the “MFI relative to 293 parental cells” value in test [2] is 83.9 fold over 293 parental cells; in test [5] it was 0.6 fold over 293 parental cells; in test [6] it was 0.6 fold over 293 parental cells.

B3: hPA-005 (antibody, V domains shown)
VH: QVILKESGPGILQSSQTLSLTCSFSGFSLSTFGMGVGWIRQPSGKGLESLAHIWWDDDKFYNPALKSRLTISKDTSKSQVFLKIANVDTADIATYYCTRIEDYGSYFAYWGQGTTLTVSS
VL: DVQMNQSPSSLSASLGDPITITCHASQNIHVWLNWYQQRPGNIPRLLIYKASNLHTGVPSRFSGSGSGTGFTLTISSLQPEDIATYYCQQGQSYPYTFGGGTKLEIK
notes: as for B2
Regarding B3, the binding result in test [1] was “no binding (tested: cutoff of greater than 5-fold binding)”. Moreover, the IC50 in test [7] was determined as 1.9 nM. Further, the “MFI relative to 293 parental cells” value is 104 fold over 293 parental cells in test [2]; 1.3 fold over 293 parental cells in test [3]; 0.5 fold over 293 parental cells in test [4]; 0.4 fold over 293 parental cells in test [5]; 0.5 fold over 293 parental cells in test [6].

B4: hPA-002 (antibody, V domains shown)
VH: QVTLQESGPGILQPSQTLSLTCSFSGFSLSTFGMGVGWIRQPSGKGLEWLAHIWWDDDKYYNPALKSRLTISKDTSKNQVFLKIASVDTADIATYYCARVEDYGNPFDYWGQGTTLTVSS
VL: DIQMNQSPSSLSASLGDTITITCHASQNIHVWLNWYQQKPGNIPKLLIYKASNLHTGVPSRFSGSGSGTGFTVTISSLQPEDIATYYCQQGQSYPLTFGAGTKLELK
notes: Mouse hybridoma antibody, tested as conditioned medium or purified; also called hPA-002 A647
Regarding B4, the binding result in test [1] is “no binding (tested: cutoff of greater than 5-fold binding)”. The IC50 in test [7] came to 0.75 nM. For the same molecule, the “MFI relative to 293 parental cells” value in test [2] is 133 fold over 293 parental cells; in test [3], 1.2 fold over 293 parental cells; in test [4], 0.3 fold over 293 parental cells; in test [5], 0.3 fold over 293 parental cells; in test [6], 0.3 fold over 293 parental cells.
